In patent US12359240B2, “Membrane protease-based methods for detection of bacteria” (Nanyang Technological University, priority 2019, dated 2025):
Where no end group is shown, it is not given here.

Assays:
OmpT [1] = target: T1, OmpT (Escherichia coli, UniProt P09169)
OmpT and PgtE = experiment: Substrate preference of OmpT versus PgtE, change in PT6 fluorescence with time; assay type: biochemical, E. coli K-12; Salmonella typhi; conditions: FIG. 15
E. coli K12 = experiment: Detection of E. coli in contaminated water with the LL37 peptides and PT6; assay type: cell-based, Escherichia coli; conditions: 10^8 CFU/mL E. coli K12, FIG. 14A
OmpT [2] = target: T1, OmpT; conditions: for rate of reduction in PT6 fluorescence (cleavage by OmpT) relative to the peptide of Examples 1-5: interpreted from the slope
[3] = PTAA-peptide fluorescence and optical absorption measurements (no enzyme); conditions: 550 nm; peptide's highest concentration
Protocol: All PTAA and LL37FRRY mixing were carried out in the reaction buffer. All optical absorption and fluorescence measurements were carried out on 100 μL samples in a flat bottom 96 well plate using a TECAN Infinite® 200 PRO(Switzerland). Optical absorption measurements were collected from 330-650 nm. […] To understand the effect of intact and cleaved fragments on the fluorescence intensity and optical absorption of PTAA, LL37FRRV, frag1LL37FRRV (SEQ ID NO: 47) and frag2LL37FRRV (SEQ ID NO: 48) were added in different ratios (10:0, 8:2, 6:4, 4:6, 2:8, 0:10) while keeping the total peptide concentration at 50 μM. The fluorescence intensity and optical absorption spectra were measured as mentioned before.

OmpT [4] = target: T1, OmpT; remark: listed apart in the source
Protocol: This OmpT was obtained by overexpressing the protein in E. coli BL21 as inclusion bodies using a protocol reported earlier [Kramer, R. A. Zandwijken, D. Egmond, M. R. Dekker, N. Eur. J. Biochem. 267, 885-893 (2000)]. Briefly, the inclusion bodies were unfolded and solubilized using 8 M urea and subsequently refolded in the presence of DodMe2NPrSO3, a zwitterionic detergent. The refolded OmpT was purified and stored at 4° C. for further use. […] To this 100 μL reaction mixture, 10 μL of PTAA stock solution (0.1 mg/mL) was added. Fluorescence measurements and absorbance scans were collected as mentioned before. The raw fluorescence (F.) intensity scans are either plotted as is or reported as % fluorescence increase. The following formula was applied to convert fluorescence intensity (a.u.) to % fluorescence increase: […]

[5] = PT6-peptide fluorescence measurements (no enzyme); conditions: FIG. 18
Protocol: Stock solutions of PT6 was prepared in a reaction buffer such that the absorbance at λmax was ˜1.4. All absorbance and fluorescence measurements were carried out on 100 μL samples in a flat bottom 96 well plate using a TECAN Infinite® 200 PRO (Switzerland). Fluorescence scans were collected by exciting the samples at 495 nm, further recording their emission spectrum from 525-750 nm. […] In order to study the effect of cysteine on PT6 fluorescence, different concentrations (150-6.25 μM) of the two peptides (Table 12) were prepared from the stock and mixed with PT6 such that the final concentration of the PT is a 10 time dilution of the stock. The fluorescence intensities were measured as described above.

OmpT [6] = target: T1, OmpT; conditions: 20 μM peptide, OmpT 6 hours, FIG. 17

T1 sequence (P09169 21-317): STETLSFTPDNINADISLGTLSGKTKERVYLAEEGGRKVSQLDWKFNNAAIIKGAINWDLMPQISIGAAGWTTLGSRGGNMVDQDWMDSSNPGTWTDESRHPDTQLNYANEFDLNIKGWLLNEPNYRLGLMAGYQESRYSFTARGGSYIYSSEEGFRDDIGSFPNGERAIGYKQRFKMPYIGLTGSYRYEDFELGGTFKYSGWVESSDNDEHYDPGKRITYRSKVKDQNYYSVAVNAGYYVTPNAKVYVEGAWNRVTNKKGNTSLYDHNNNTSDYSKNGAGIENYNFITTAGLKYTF

FRRV: library peptide of type AcGX1RRX2GC carrying the tetrapeptide sequence FRRV at the cleavage site (Ac-GFRRVGC)
cleavage by OmpT of library peptide AcGX1RRX2GC (OmpT [1]; tetrapeptide sequence at the cleavage site): efficiently cleaved

C L L G D F A R R A K E K I G (CLLGDFARRAKEKIG; LL37ARRA)
substrate preference of OmpT compared with PgtE (OmpT and PgtE): OmpT exhibits a higher preference

C L L G D F Y R R A K E K I G (CLLGDFYRRAKEKIG; LL37YRRA)
rate of reduction in PT6 fluorescence (E. coli K12): faster rate
rate of reduction in PT6 fluorescence (cleavage by OmpT) relative to the peptide of Examples 1-5 (OmpT [2]): faster rate

C L L G D F F R R A K E K I G (CLLGDFFRRAKEKIG; LL37FRRA)
rate of reduction in PT6 fluorescence (E. coli K12): faster rate
rate of reduction in PT6 fluorescence (cleavage by OmpT) relative to the peptide of Examples 1-5 (OmpT [2]): faster rate

C L L G D F F R R Y K E K I G (CLLGDFFRRYKEKIG; LL37FRRY)
overall increase in PTAA's fluorescence intensity upon peptide addition [3]: ~200%
PTAA's fluorescence intensity less than with peptide in the absence of OmpT (OmpT [4]; 42 nM OmpT, 2 hours, 50 μM peptide): ~175%
PT6 fluorescence intensity, peptide with versus without terminal cysteine [5]: much higher fluorescence intensity
rate of reduction in PT6 fluorescence (E. coli K12): faster rate
incubation time with OmpT of the sample showing colour change from bronze to purple (OmpT [2]; PT6, normal visible light, FIG. 13B top): 70 min
rate of reduction in PT6 fluorescence (cleavage by OmpT) relative to the peptide of Examples 1-5 (OmpT [2]): faster rate
difference in PTAA fluorescence intensity between intact peptide and peptide digested with OmpT (OmpT [6]): largest difference

C L L G D F F R R V K E K I G (CLLGDFFRRVKEKIG; LL37FRRV)
increase in PTAA fluorescence intensity when mixed with OmpT-cleaved peptide fragments (OmpT [4]; peptide treated with OmpT in detergent micelles): no more than 20%
times better then original peptide (substrate specific for OmpT) (OmpT [1]; SAMDI-MS peptide array, versus original peptide): 400 times
